Measurements as given in patent US20230322857A1, “RECOMBINANTLY ENGINEERED POLYPEPTIDES CAPABLE OF RECYCLING NONCANONICAL COFACTORS” (The Regents of the University of California, priority 2022, published 2023).

Assays:
[1] = Steady-state kinetics of TS-PTDH variants with NADP^+; assay type: biochemical; details: 100 mM MOPS, pH 7.25, 10 mM sodium phosphite, varied cofactor concentrations; n = 3
[2] = Steady-state kinetics of TS-PTDH variants with NMN^+; assay type: biochemical
[3] = TS-PTDH total turnover number determination (NMN(H) cycling with XenA, KIP to levodione); assay type: biochemical; details: averaged over the 16-day reaction
Experimental: TS-PTDH Total Turnover Number Determination. Reactions to determine the TTN of TS-PTDH LY-13 (see FIG. 10B) were performed at 1 mL volumes in 2 mL glass vials secured with a PTFE-lined screw cap. Reactions were incubated without shaking at 30° C. Reaction buffer was comprised of 200 mM MOPS at pH 7.5, 100 mM sodium phosphite, 6 mM NMN^+, and 33 mM ketoisophorone (KIP). To initiate the reaction, purified TS-PTDH LY-13 and XenA were spiked into the reaction mixture to a final concentration of 0.25 μM and 18.8 μM, respectively. The reactions were sampled intermittently by removing 50 μL of reaction mixture and mixing with 100 μL of ethyl acetate containing 200 mg/L1-octanol. Samples were vortexed, centrifuged, and the ethyl acetate fraction was transferred to a GC vial for GC-FID analysis. GC-FID analysis for KIP biotransformation efficiency was performed on an Agilent 6850 GD using an Agilent DB-WAX column (30 m×0.56 mm×1 μm). Helium was used as a carrier gas. The inlet and detector were held at 250 and 260° C., respectively. 5 μL of sample was injected with a 2:1 split ratio. […] TTN was calculated by the moles of levodione produced divided by the moles of LY-13 supplied to the reaction system. Total turnover frequency was determined by dividing TTN by the total reaction time of 384 h. Levodione concentration was determined by correlating sample response to a standard curve of known values.

E. coli SHuffle strain = test: Recapitulation of growth restoration with TS-PTDH variants in SHuffle strain; assay type: cell-based, Escherichia coli; details: spotted onto agar selection plates
Experimental: Selection of TS-PTDH Library. A total of 50 μL pre-made SHuffle/pLZ311 or SHuffle/pLZ312 electro-competent cells were transformed with 2 μL TS-PTDH A155N-E175-A176-L208 NNK library DNA (pLZ316) via electroporation as described above. After rescue in SOC media for 1 h, cultures were combined in 10 mL 2×YT with 10 g/L glucose, 0.5% arabinose, kanamycin and ampicillin. 0.2, or 1 μL of culture was immediately taken from the culture and plated on an 2×YT agar plates with kanamycin and ampicillin. The plate was incubated at 37° C. overnight, and the number of colonies formed was counted to estimate the library size. The liquid cultures were incubated at 37° C. with shaking for 10 h. Cells (1 mL) were washed 3 times and re-suspended in M9 Buffer. Targeted serial dilutions of cells were prepared in M9 buffer and 5 μL aliquots were dispensed in series on an agar plate of M9 selection media containing 0.5 mM diamide, 5 or 1 g/L yeast extract, 10 g/L glucose, 0.5% arabinose, 0.5 mM IPTG, 10 g/L sodium phosphite, kanamycin, ampicillin, and 5 mM NMN^+. Selection plates were incubated at 37° C., and photographs were taken to document growth progress. The independent transformants sampled was calculated as 2.4×10^6 and 2.5×10^6 colonies when plated on 5 and 1 g/L yeast extract, respectively. TS-PTDH and the template of the library, TS-PTDH A155N, were cultured in the same conditions as controls. The colonies were numbered by the order of appearance. The selected cells were re-streaked on fresh agar plate with identical media and incubated until single colonies formed on the plate. Variants that cannot forma single colony may be false positives. After extracting the plasmids from each re-streaked colony, the chosen TS-PTDH variants were amplified and moved into the pQElac vector containing a N-terminal 6×His tag for protein purification and characterization. […] 2 μL of a serial dilution of cells were deposited onto a growth selection plate and grown at 37° C.

[4] = 100 mM MOPS, pH 7.25, 10 mM sodium phosphite, varied cofactor concentrations, n = 3

B1: LY-13: phosphite dehydrogenase variant with A155N, E175A, A176F (SEQ ID NO: 6) (protein)
chain: MLPKLVITHRVHEEILQLLAPHCELITNQTDSTLTREEILRRCRDAQAMMAFMPDRVDADFLQACPELRVIGCALKGFDNFDVDACTARGVWLTFVPDLLTVPTAELAIGLAVGLGRHLRAADAFVRSGKFRGWQPRFYGTGLDNATVGFLGMGNIGLAMADRLQGWGATLQYHAFKALDTQTEQRLGLRQVACSELFASSDFILLALPLNADTLHLVNAELLALVRPGALLVNPCRGSVVDEAAVLAALERGQLGGYAADVFEMEDWARADRPQQIDPALLAHPNTLFTPHIGSAVRAVRLEIERCAAQNILQALAGERPINAVNRLPKANPAAD
- Km [1]: 50 ± 10 µM
- NADP^+ kcat [1]: 0.96 ± 0.02 s⁻¹
- Km [2, 4]: 620 µM
- NMN^+ kcat [2, 4]: 0.27 ± 0.01 s⁻¹
- increase in catalytic efficiency for NMN^+ compared to TS-PTDH (wild type enzyme) ([2]; vs TS-PTDH): ~110 fold
- increased catalytic efficiency (kcat/Km) for NMN^+ compared to TS-PTDH A155N ([2]; vs parent enzyme TS-PTDH A155N): ~44 fold
- Total Turnover Frequency [3]: ~117 turnovers per hour
- growth restoration, co-expression with NMNH-specific Gor Ortho (E. coli SHuffle strain): markedly improved growth restoration
- growth restoration, co-expression with NMNH-specific Gor Ortho (E. coli SHuffle strain; listed as TS-PTDH LY-13): improved growth compared to TS-PTDH A155N
